Results on seven molecules are retold here after article PMC8692065 (Cell Reports, 2021).

Assay [1] has as its target SARS-CoV-2 RBD-mFc (SARS-CoV-2, original strain, UniProt P0DTC2). The assay is described as follows: flow cytometry on cells.
Assay [2] has as its target SARS-CoV-2 Nucleocapsid (SARS-CoV-2, UniProt P0DTC9). Description: ELISA. A general note: In an ELISA, binding on a coated surface is turned into a signal by an enzyme label.
Assay [3] concerns the target SARS-CoV-2 S2-mFc (SARS-CoV-2, original strain, UniProt P0DTC2). The assay is described as follows: flow cytometry on cells. For orientation: A flow cytometer gives signals particle by particle.

B1: mAb-76, displayed on nPnP hybridoma cells (single-ORF linker format) (antibody, V domains shown)
VH: QVQLQQWGAGLLKPSETLSRTCGVYGGSFSGFYWSWIRQPPGKGLEWIGEINQSGTTSYNPSLMSRVTVSVDTSKNQFSLKLNSVTAADTAVYYCARRRSSWFEAGVHWYFDLWGRGTLVTVSS
VL: DIVMTQSPLSLAVTPGEPASISCRSSQSLLHSNGYNYLDWYLQKPGQSPQVLIYLGSNRASGVPDRFSGSGSGTDYTLKISRVEAEDAGVYYCMQALQTPTFGRGTKLEIK
Regarding B1, in assay [1], the binding result is reported as “binds”.

B2: CR3022, secreted by nPnP hybridoma cells (single-ORF linker format), supernatant (antibody, V domains shown)
VH: QMQLVQSGTEVKKPGESLKISCKGSGYGFITYWIGWVRQMPGKGLEWMGIIYPGDSETRYSPSFQGQVTISADKSINTAYLQWSSLKASDTAIYYCAGGSGISTPMDVWGQGTTVTVSS
VL: not shown
B2: the binding result in assay [2] is “no binding”.

B3: mAb-78, displayed on nPnP hybridoma cells (single-ORF linker format) (antibody, V domains shown)
VH: QVQLVESGGGVVQPGRSLTLSCAVSGFSFNNYGMHWVRQAPGKGLEWVSFISYEGSKRYYMDSLKGRFTISRDSSKNEVYLQMNRLTPEDTAVYYCAKSRAYFHFSAGRGVFDYWGRGALVTVSS
VL: DMQMTQSPSSLSASVGDRVTITCQASQDIGTYLNWYRHKPGEAPKLLIYHASNLETGVPSRFSGSGSGTDFSFTISSLQPEDIGTYYCQQYDDLPVFAFGPGTKVDLK
For the molecule B3, the binding result in assay [3] was “binds”.

B4: mAb-56, displayed on nPnP hybridoma cells (single-ORF linker format) (antibody, V domains shown)
VH: EVQLVESGGGLIQPGGSMRLSCAASGFSVGTTYMSWVRQAPGKGLEWVSVVFKGHDTYYRKSVKGRFTISRDSSKNTLYLQMSDLRAEDSAVYFCTNMVLTYDSGWYWLDYWGQGIRVTVSS
VL: DIQMTQSPSPLSAFVGDMVTITCRASQSINNFLNWYQQKPGKAPRLLIYGASTLETGVPTRFSGSGSGTDFTFTISSLQPEDIATYYCQQYDNLPLTFGGGTKVEIK
For the molecule B4, the binding result in assay [1] was “binds”.

B5: mAb-115, displayed on nPnP hybridoma cells (single-ORF linker format) (antibody, V domains shown)
VH: EVQVVESGGGLVKPGGSLRLSCSVSGTTLADAWLNWVRQAPGKGLEWVGRIKSKPDVGTTEYAAPVKGRFIISRDDSGNSFFLQMTDLKPEDTAVYYCAARWEMQLWLRLFDFWGPGALVTVSS
VL: EIVVTQSPATLSVSAGERANLSCRTSQSISRDLAWYQQKPGQAPRLLIYGVFSRATGIPARFSGSGSGTEFTLTISSLQSEDFAVYYCQQYNKWWTFGQGTKVEIK
For the molecule B5, the binding result in assay [3] is on record as “binds”.

B6: mAb-80, displayed on nPnP hybridoma cells (single-ORF linker format) (antibody, V domains shown)
VH: EVQLVESGGGLVQPGGSLRLSCAASGFTFSSYWMHWVRQAPGKGLVWVSRINSDERNTRYADSVRGRFTISRDNAKNTLSLQMNSLRVDDTAVYYCARGGAAISYLYYYYGMDVWGQGTTVTVSS
VL: not shown
Regarding B6, in assay [3], the binding result is given as “binds”.

B7: mAb-111, displayed on nPnP hybridoma cells (single-ORF linker format) (antibody, V domains shown)
VH: DVQLLESGGGLVQPGGSRRLSCAASGFTFSNHAMSWVRQAPGKGLEWVSSISGSGGSTDYGDSVKGRFIVSRDNPRNTLYLDMNNLRTQDTAVYYCAKDRTFFTDSMLESWGEGTLVTVSS
VL: DIQMTQSPSSLSASVGDRVTITCRASQTISKSLNWYQQRPGKAPKLLIYAASNLQSGFPSRFSGSGSGTDFTLTISSVQPGDFATYYCQQTYSTPVTFGQGTTLEIK
In the case of B7, the binding result in assay [3] is recorded as “binds”.
